The source of these data is patent US20230407367, “INTRINSICALLY DISORDERED PROTEINS FOR EXTRACTION OF NUCLEIC ACIDS” (published 2023).

Data set [1] addresses T1, H-20 His-ELP (synthetic construct).
T1 chain: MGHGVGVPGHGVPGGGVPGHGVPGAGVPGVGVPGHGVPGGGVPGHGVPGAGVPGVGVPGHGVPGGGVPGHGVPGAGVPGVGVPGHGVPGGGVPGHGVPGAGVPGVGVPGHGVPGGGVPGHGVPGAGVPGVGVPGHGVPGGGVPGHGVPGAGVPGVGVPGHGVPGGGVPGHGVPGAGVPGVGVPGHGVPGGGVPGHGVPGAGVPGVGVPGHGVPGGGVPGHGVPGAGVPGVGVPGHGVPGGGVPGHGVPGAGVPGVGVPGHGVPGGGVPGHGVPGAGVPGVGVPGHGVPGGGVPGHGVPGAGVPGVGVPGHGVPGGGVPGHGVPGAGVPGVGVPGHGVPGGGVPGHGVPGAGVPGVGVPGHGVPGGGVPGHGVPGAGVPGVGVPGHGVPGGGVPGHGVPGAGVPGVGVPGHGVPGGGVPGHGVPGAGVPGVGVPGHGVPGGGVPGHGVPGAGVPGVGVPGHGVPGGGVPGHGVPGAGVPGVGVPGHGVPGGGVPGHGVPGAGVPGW
Kind of data set: EMSA; pH 6, room temperature, 0.1-100 uM; weaker than H-24. How it is done: (§1) According to the prediction of His-ELP charge as a function of pH (FIG. 1l A), at pH 6, H-20 (SEQ. ID. NO. 8) is expected to have a charge of ≈+33 and H-24 (SEQ. ID. NO. 9) is expected to have a greater charge of ≈+39 as it has more histidines in its sequence. The primary association between His-ELPs and NAs is via electrostatic interactions; thus, the protein with greater charge is expected to have a more robust binding activity. Gel retardation assays were performed to analyze the binding activity of the His-ELPs (and another ELP with 8 cationic lysine charges, E3) with tRNA and ssDNA as a function of protein concentration at pH 6 (FIG. 12). Binding and gel electrophoresis were conducted at room temperature, below the Tt of each of the proteins, and for both tRNA and ssDNA, the degree of NA migration retardation was dependent on protein concentration (see FIG. 4).
Background: Mobility shift assays separate free from complexed probe on a gel.

The target of data set [2] is T2, H-24 His-ELP (synthetic construct).
T2 chain: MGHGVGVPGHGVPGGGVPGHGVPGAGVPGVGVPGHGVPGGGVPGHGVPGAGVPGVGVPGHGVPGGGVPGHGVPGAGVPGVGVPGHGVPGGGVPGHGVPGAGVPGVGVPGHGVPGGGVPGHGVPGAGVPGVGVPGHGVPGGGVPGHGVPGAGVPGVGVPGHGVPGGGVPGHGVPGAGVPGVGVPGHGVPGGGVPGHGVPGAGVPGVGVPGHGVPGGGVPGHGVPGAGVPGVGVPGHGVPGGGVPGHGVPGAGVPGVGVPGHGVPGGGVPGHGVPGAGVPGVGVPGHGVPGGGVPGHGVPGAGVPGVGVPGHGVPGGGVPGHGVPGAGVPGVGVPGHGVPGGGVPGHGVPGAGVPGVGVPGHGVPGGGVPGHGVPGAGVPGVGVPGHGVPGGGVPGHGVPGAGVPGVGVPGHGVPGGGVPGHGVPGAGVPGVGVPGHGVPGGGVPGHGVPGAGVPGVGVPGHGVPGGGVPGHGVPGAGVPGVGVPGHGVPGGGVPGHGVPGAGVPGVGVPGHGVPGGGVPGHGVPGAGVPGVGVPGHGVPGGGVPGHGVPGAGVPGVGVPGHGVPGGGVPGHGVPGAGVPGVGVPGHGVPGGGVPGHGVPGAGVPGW
Put plainly: EMSA; pH 6, room temperature, 0.1-100 uM. How it is done: as §1

In data set [3] the target is T3, E3 ELP [(VPGXG)10-GKG]8 (synthetic construct).
T3 chain: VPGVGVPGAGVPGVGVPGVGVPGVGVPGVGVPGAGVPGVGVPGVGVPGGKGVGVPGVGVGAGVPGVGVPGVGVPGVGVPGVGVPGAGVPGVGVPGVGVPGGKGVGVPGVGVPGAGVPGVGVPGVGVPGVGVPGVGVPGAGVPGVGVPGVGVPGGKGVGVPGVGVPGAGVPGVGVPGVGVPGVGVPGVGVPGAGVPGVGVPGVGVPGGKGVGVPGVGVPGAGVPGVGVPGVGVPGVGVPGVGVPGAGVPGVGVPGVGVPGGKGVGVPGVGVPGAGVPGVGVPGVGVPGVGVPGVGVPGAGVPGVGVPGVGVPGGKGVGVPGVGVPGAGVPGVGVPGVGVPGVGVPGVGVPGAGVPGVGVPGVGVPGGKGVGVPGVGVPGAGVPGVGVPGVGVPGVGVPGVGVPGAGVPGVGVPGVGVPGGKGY
Put plainly: coacervate partitioning at 55 C, no added NaCl, 100 mM sodium phosphate pH 7.0; 100 mM NaCl leaves much more DNA in dilute phase. The note with it: label: 5'-Cy3. The source says:
Across all t=0 samples at room temperature (T<Tt) no E3 condensates are observed (FIG. 3, A1 and D1) and all solution components are miscible and evenly distributed throughout the droplet volume (FIG. 3, A2, D2, A3 and D3). The incipient stages of thermally triggered E3 phase transition occur simultaneously throughout droplet volumes, corroborating demixing through spinodal decomposition for both +NaCl and −NaCl samples (FIG. 3, B1 and E1). […] Note that the recruitment of ssDNA-Cy3 into the E3 rich condensates is E3 concentration dependent. By contrast, addition of NaCl results in electrostatic shielding, partitioning more ssDNA-Cy3 in the solvent-rich phase (FIG. 3, B2 and C2). The combined E3 phase behavior and ssDNA-Cy3 partitioning for −NaCl and +NaCl is further evidenced by inspection of the merged brightfield and fluorescence microscopy images of FIG. 3, panels A3-F3.
To image the process of temperature-mediated E3 coacervation and interaction with DNA-Cy3, an Olympus IX83 fluorescence microscope (Olympus Life Science Technology Division, Center Valley, PA) was equipped with a Physitemp cooling and heating stage (TS4-MP/ER/PTU, Clifton, NJ) fitted with a temperature controller. Microfluidic droplets were generated using previously described methods and droplet generator. […]

Turning to TTTTTCCTAGAGAGTAGAGCCTGCTTCG (ssDNA) [ssDNA 28 nt], the binding result in data set [1] and in data set [2] was “binds” in each case.
Turning to TTTTTCCTAGAGAGTAGAGCCTGCTTCG (ssDNA) [Cy3-ssDNA (DNA-Cy3)], the binding result in data set [3] is reported as “binds”.
